These are literature values, as cited in PMC3006222.

In the series the target is Heat-labile enterotoxin B subunit (LTB) (UniProt P0CK94). Kind of series: not stated in this article (acid-induced pentamer disassembly, earlier work). Conditions: pH 1.9.
Sequence of UniProt P0CK94 (P0CK94 whole entry): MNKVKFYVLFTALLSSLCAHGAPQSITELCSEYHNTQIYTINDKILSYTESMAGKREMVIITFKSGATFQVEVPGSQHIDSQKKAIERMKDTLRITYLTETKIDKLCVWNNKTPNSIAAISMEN

With Heat-labile enterotoxin B subunit (LTB), the threshold pH for acid disassembly of the pentamer is 1.9 pH.
